Data on five molecules can be found in paper PMC3799434, “RNA polymerase III-specific general transcription factor IIIC contains a heterodimer resembling TFIIF Rap30/Rap74” (Nucleic Acids Research, 2013).

Residue numbers refer to the chain shown, from its start.

Usually Kd stands for the equilibrium constant for the complex coming apart.

Series [1] addresses T1, Sfc1 186-283 (winged helix, lacks WHI) (Schizosaccharomyces pombe, UniProt O14229 186-283).
T1 sequence: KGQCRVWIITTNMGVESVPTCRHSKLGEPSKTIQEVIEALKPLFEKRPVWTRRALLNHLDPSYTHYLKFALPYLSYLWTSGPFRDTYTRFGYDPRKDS
Description: filter binding. To be noted: Buffer D: 20 mM Tris-HCl pH 7.5, 200 mM KCl, 2 mM MgCl2, 10 mM DTT, 25 C (EMSA and nitrocellulose filter binding). A general note: Mobility shift assays separate free from complexed probe on a gel.

The target of series [2] is T2, Sfc7 (S. pombe TFIIIC τA subunit), full length (Schizosaccharomyces pombe, UniProt A6X980 1-120).
T2 construct: Sfc7, Schizosaccharomyces pombe, full length (Mr = 13.3 kDa); cloned into pCDF-MCN; PDB 4BJJ holds residues 1-101; also called orthologue of S. cerevisiae τ55 (Tfc7) and human TFIIIC35; source: E. coli BL21 (DE3) RIPL, co-expressed with Sfc1, purified (Ni-NTA, TEV, second Ni-NTA, Mono Q, Superdex S200)
T2 sequence (looked up): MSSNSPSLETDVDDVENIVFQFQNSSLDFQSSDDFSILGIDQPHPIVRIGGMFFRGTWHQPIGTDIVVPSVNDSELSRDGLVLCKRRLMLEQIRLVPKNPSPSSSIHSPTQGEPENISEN
In words: ion-exchange chromatography; fragments from limited proteolysis of the purified Sfc1/Sfc7 heterodimer, separated by ion-exchange chromatography. The settings on record: both partners purified.

The target in a further series is T3, Sfc1-DBD (Schizosaccharomyces pombe, UniProt O14229 186-396).
T3 sequence: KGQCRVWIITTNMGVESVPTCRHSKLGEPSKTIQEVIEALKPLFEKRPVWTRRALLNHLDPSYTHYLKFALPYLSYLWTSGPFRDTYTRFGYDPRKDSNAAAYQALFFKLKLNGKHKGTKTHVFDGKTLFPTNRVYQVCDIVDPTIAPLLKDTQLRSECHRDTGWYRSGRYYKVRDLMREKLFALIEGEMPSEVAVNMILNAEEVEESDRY
Description: unspecified (data not shown); similar affinity to A-box; Buffer D: 20 mM Tris-HCl pH 7.5, 200 mM KCl, 2 mM MgCl2, 10 mM DTT, 25 C (EMSA and nitrocellulose filter binding). The settings on record: protein: recombinant; tags: N-terminal His-tag, TEV-cleaved; label: 32P; blunt.

For series [3], the target named is T4, Sfc1-DBD (C-terminal DNA-binding domain of Sfc1, residues 186-396), recombinant (Schizosaccharomyces pombe, UniProt O14229 186-396).
T4 construct: Sfc1, Schizosaccharomyces pombe, residues 186-396 (winged-helix domain 186-283 and WHI domain 284-396); The crystal structure (4BJI) used selenomethionine-substituted protein; Purification details are in the Supplemental Methods; source: E. coli, purified (Ni-NTA, TEV, ion exchange, no gel filtration); not shown: His-tag, N-terminal, cleaved
T4 sequence (looked up): T3 sequence
In words: ITC; 25°C, VP-ITC; 50 mM HEPES pH 7.5, 150 mM NaCl, 2 mM β-mercaptoethanol; 10 µl injections of 200 µM peptide into 2 ml of 10 µM protein; data not shown. The settings on record: both partners purified. On the technique in general: ITC needs no label: the signal is the heat of the interaction.

Series [4] deals with T5, Sfc1 1-396;Sfc7 full length (Schizosaccharomyces …, UniProt O14229;A6X980 1-396;1-120, |).
T5 sequence 1: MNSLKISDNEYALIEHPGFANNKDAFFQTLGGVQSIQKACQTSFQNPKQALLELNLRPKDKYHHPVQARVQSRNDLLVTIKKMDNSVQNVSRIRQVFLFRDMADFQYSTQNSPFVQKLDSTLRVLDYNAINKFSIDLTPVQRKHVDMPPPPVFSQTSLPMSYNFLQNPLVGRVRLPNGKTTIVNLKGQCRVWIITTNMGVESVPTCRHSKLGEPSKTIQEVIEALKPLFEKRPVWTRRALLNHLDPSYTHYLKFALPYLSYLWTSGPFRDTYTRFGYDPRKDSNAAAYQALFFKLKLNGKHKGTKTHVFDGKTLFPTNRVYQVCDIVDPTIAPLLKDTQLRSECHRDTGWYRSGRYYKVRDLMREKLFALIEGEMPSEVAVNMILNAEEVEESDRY
T5 sequence 2: T2 sequence (looked up)
In words: filter binding; Buffer D: 20 mM Tris-HCl pH 7.5, 200 mM KCl, 2 mM MgCl2, 10 mM DTT, 25 C (EMSA and nitrocellulose filter binding). The settings on record: protein: recombinant;recombinant; tags: N-terminal His-tag, TEV-cleaved;; copies: 1;1; label: 32P; blunt.

A further series concerns the target T6, Sfc1 186-456 (Schizosaccharomyces pombe, UniProt O14229 186-456).
T6 sequence: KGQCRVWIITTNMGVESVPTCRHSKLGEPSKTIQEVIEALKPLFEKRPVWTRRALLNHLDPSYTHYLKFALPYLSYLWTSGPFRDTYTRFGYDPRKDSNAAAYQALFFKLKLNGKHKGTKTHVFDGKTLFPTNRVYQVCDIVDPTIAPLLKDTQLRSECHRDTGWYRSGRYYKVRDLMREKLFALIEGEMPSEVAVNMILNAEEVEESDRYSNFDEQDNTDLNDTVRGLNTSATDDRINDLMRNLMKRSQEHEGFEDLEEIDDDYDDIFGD
The description is as above. The settings on record: protein: recombinant; tags: N-terminal His-tag, TEV-cleaved; label: 32P; blunt.

A further series has as its target T7, Sfc1 111-456 (Schizosaccharomyces pombe, UniProt O14229 111-456).
T7 sequence: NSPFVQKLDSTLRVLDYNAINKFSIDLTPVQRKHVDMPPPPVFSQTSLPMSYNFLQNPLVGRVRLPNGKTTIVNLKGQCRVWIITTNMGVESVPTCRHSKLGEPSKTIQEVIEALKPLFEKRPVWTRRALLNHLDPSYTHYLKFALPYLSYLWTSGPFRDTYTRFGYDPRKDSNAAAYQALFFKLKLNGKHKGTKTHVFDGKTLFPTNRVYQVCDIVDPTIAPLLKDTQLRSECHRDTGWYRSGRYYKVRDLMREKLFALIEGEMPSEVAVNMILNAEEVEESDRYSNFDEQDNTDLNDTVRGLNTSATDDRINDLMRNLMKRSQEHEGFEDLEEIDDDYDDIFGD
The series is described as above. To be noted: protein: recombinant; tags: N-terminal His-tag, TEV-cleaved; label: 32P; blunt.

Series [5] concerns the target T8, Sfc1 full length;Sfc7 full length (Schizosaccharomyces …, UniProt O14229;A6X980 1-456;1-120, |).
T8 sequence 1: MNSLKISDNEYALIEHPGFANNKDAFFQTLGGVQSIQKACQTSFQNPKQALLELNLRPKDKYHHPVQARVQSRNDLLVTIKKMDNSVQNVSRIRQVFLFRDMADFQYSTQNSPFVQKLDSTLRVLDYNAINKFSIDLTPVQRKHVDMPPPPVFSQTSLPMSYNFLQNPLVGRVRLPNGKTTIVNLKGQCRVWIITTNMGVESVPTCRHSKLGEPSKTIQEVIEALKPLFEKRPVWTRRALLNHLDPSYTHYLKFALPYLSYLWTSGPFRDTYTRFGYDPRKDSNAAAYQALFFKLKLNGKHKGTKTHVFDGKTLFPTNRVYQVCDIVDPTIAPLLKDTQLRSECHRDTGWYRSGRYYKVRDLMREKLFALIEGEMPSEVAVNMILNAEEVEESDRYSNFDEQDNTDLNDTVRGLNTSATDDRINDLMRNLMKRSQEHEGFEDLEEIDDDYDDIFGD
T8 sequence 2: T2 sequence (looked up)
Described as above. The settings on record: protein: recombinant;recombinant; tags: N-terminal His-tag, TEV-cleaved;; copies: 1;1; label: 32P; blunt.

For the next series, the target named is T9, Sfc1-DBD K294A (Schizosaccharomyces pombe, UniProt O14229 186-396, K294A).
T9 sequence: T3 sequence with K109A
The description is as above. The settings on record: protein: recombinant; tags: N-terminal His-tag, TEV-cleaved; label: 32P; blunt.

The next series addresses T10, Sfc1-DBD R269A (Schizosaccharomyces pombe, UniProt O14229 186-396, R269A).
T10 sequence: T3 sequence with R84A
The description is as above. The settings on record: protein: recombinant; tags: N-terminal His-tag, TEV-cleaved; label: 32P; blunt.

The target of another series is T11, Sfc1-DBD R237A (Schizosaccharomyces pombe, UniProt O14229 186-396, R237A).
T11 sequence: T3 sequence with R52A
The description is as above. The settings on record: protein: recombinant; tags: N-terminal His-tag, TEV-cleaved; label: 32P; blunt.

The target of another series is T12, Sfc1-DBD R269A/K294A (Schizosaccharomyces pombe, UniProt O14229 186-396, R269A;K294A).
T12 sequence: T3 sequence with R84A, K109A
The series is described as above. The settings on record: protein: recombinant; tags: N-terminal His-tag, TEV-cleaved; label: 32P; blunt.

Series [6] addresses T1, Sfc1 186-283 (winged helix, lacks WHI). Described as above. To be noted: protein: recombinant; tags: N-terminal His-tag, TEV-cleaved; label: 32P; blunt.

In [1], A-box non-coding ssDNA (nc-ss) gave a binding signal (fold lower affinity than Sfc1-DBD) of 10.

B1: Sfc1-NT, smaller protease-resistant Sfc1 fragment (residues 1-107) (domain or fragment, Schizosaccharomyces pombe, UniProt O14229 1-107, looked up)
chain: MNSLKISDNEYALIEHPGFANNKDAFFQTLGGVQSIQKACQTSFQNPKQALLELNLRPKDKYHHPVQARVQSRNDLLVTIKKMDNSVQNVSRIRQVFLFRDMADFQY
notes: Sfc1, Schizosaccharomyces pombe, residues 1-107, assigned by electrospray mass spectrometry and peptide mass fingerprinting; also called smaller Sfc1 fragment; source: limited proteolysis of the purified Sfc1/Sfc7 heterodimer made in E. coli; not shown: His-tag, N-terminal, cleaved
Take B1: in series [2], the binding result is recorded as “binds”.

B2: B-box dsDNA (25 bp) (dsDNA)
DNA 1: CGACCCGGGTTCGATTCCCGGCCAA
DNA 2: TTGGCCGGGAATCGAACCCGGGTCG
Take B2: in the series with Sfc1-DBD, the binding result is given as “binds”.

B3: Sfc1_(435-456) synthetic peptide (22mer acidic Sfc1 tail peptide) (peptide)
peptide: QEHEGFEDLEEIDDDYDDIFGD
notes: Sfc1, Schizosaccharomyces pombe, the 22 C-terminal residues (435-456), pI 3.5; The methods call it Sfc1_(434-456); also called Sfc1_(434-456) peptide (methods); acidic tail peptide; source: synthetic peptide
Turning to B3, in series [3], the Kd is 3000 ± 800 nM.

B4: A-box dsDNA (25 bp) (dsDNA)
DNA 1: CGAAGTGGCCGAGTGGTCTATGGCG
DNA 2: CGCCATAGACCACTCGGCCACTTCG
Turning to B4, the binding result in [4] is given as “binds”; with Sfc1 186-456, “no binding”; with Sfc1 111-456 it was “no binding”; in series [5], “no binding”. Further, the binding signal is > 2 fold lower affinity than Sfc1-DBD with Sfc1-DBD K294A; > 2 fold lower affinity than Sfc1-DBD in the series with Sfc1-DBD R269A; > 2 fold lower affinity than Sfc1-DBD in the series with Sfc1-DBD R237A; > 2 fold lower affinity than Sfc1-DBD with Sfc1-DBD R269A/K294A; ~10 fold lower affinity than Sfc1-DBD in series [6].
